Experimental data as given in US20130225488A1 (CADILA HEALTHCARE, published 2013).
Where no end group is shown, it is not given here. [ ]: non-standard residue; d: D form. αMePhe(2-F) = C[C@](N)(Cc1ccccc1F)C(=O)O; Ac3c = NC1(C(=O)O)CC1

B1: Seq. ID. No. 6: HSQGTFTSD-Bip(OMe)-Bip(Pyr) (peptide)
peptide: HSQGTFTSD[Bip(OMe)][Bip(Pyr)]
modifications: not fully specified (C-terminus); printed as HSQGTFTSD-Bip(OMe)-Bip(Pyr)
B2: Seq. ID. No. 20: H-(ACP)-QGTFTSD-Bip(OMe)-Bip(2CF3) (peptide)
peptide: H[Ac3c]QGTFTSD[Bip(OMe)][Bip(2CF3)]
modifications: not fully specified
B3: Seq. ID. No. 10: HAQGTFTSD-Bip(OMe)-Bip(Pyr) (peptide)
peptide: HAQGTFTSD[Bip(OMe)][Bip(Pyr)]
B4: Seq. ID. No. 22: HSQGT-(α-Me-2F-Phe)-TSD-Bip(OMe)-Bip(Pyr) (peptide)
peptide: HSQGTXTSDXX
modifications: α-Me-2F-Phe at 6; Bip(OMe) at 10; Bip(Pyr) at 11
B5: Seq. ID. No. 26: HAQGT-(α-Me-2F-Phe)-TSD-Bip(OMe)-Bip(Pyr) (peptide)
peptide: HAQGT[αMePhe(2-F)]TSD[Bip(OMe)][Bip(Pyr)]
B6: Seq. ID. No. 19: H-(ACP)-QGTFTSD-Bip(OMe)-Bip(2F) (peptide)
peptide: H[Ac3c]QGTFTSD[Bip(OMe)][Bip(2F)]
B7: Seq. ID. No. 36: H-(ACP)-QGT-(α-Me-2F-Phe)-TSD-Bip(OMe)-Bip(2CF3) (peptide)
peptide: HXQGTXTSDXX
modifications: not fully specified; ACP at 2; α-Me-2F-Phe at 6; Bip(OMe) at 10; Bip(2CF3) at 11
B8: Seq. ID. No. 12: HAQGTFTSD-Bip(OMe)-Bip(2CF3) (peptide)
peptide: HAQGTFTSD[Bip(OMe)][Bip(2CF3)]

Each binder was assayed against Human GLP-1 receptor (human, UniProt P43220 24-463) (assay: cell-based or functional assay).
Human GLP-1 receptor, sequence (P43220 24-463): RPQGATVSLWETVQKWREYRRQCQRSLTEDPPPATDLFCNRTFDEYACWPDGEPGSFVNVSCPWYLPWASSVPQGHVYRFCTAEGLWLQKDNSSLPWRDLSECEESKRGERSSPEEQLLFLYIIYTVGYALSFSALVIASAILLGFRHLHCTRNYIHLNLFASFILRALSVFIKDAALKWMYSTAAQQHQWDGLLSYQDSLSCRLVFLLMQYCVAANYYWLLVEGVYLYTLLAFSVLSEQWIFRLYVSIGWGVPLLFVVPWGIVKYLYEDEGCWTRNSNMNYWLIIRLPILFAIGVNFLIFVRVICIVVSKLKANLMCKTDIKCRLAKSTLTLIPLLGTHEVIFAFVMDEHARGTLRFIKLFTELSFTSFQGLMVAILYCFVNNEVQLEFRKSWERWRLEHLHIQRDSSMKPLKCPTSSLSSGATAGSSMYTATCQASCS

Row | Binder | cAMP release, % activity with respect to control; test compound 1 nM | cAMP release, % activity with respect to control; test compound 10 nM | cAMP release, % activity with respect to control; test compound 100 nM | cAMP release, % activity with respect to control; test compound 1 µM | cAMP release, % activity with respect to control; test compound 10 µM
1 | B1 | 39% | 80% | 88% | 96% | 99%

These binders were tested against Human glucagon receptor (human, UniProt P47871 26-477) (assay: cell-based or functional assay).

Row | Binder | cAMP production with saturated glucagon peptide; test compound 1 nM | cAMP production with saturated glucagon peptide; test compound 10 nM | cAMP production with saturated glucagon peptide; test compound 100 nM | cAMP production with saturated glucagon peptide; test compound 10 µM | cAMP production with saturated glucagon peptide; test compound '1 nM'
2 | B2 | 5 pmol/ml/µg prt | 2 pmol/ml/µg prt | 0 pmol/ml/µg prt | 0 pmol/ml/µg prt | 0 pmol/ml/µg prt
3 | B3 | 15 pmol/ml/µg prt | 12 pmol/ml/µg prt | 8 pmol/ml/µg prt | 2 pmol/ml/µg prt | 4 pmol/ml/µg prt
4 | B4 | 21 pmol/ml/µg prt | 19 pmol/ml/µg prt | 18 pmol/ml/µg prt | 16 pmol/ml/µg prt | 18 pmol/ml/µg prt
5 | B5 | 15 pmol/ml/µg prt | 12 pmol/ml/µg prt | 8 pmol/ml/µg prt | 2 pmol/ml/µg prt | 4 pmol/ml/µg prt
6 | B6 | 5 pmol/ml/µg prt | 3 pmol/ml/µg prt | 1 pmol/ml/µg prt | 0 pmol/ml/µg prt | 0 pmol/ml/µg prt
7 | B7 | 3 pmol/ml/µg prt | 1 pmol/ml/µg prt | 0 pmol/ml/µg prt | 0 pmol/ml/µg prt | 0 pmol/ml/µg prt
8 | B8 | 5 pmol/ml/µg prt | 3 pmol/ml/µg prt | 0 pmol/ml/µg prt | 0 pmol/ml/µg prt | 0 pmol/ml/µg prt
